Key:
[1] = tested on: postprandial plasma glucose (PPG); test: Postprandial plasma glucose after standardized breakfast, single s.c. dose, phase I crossover study; format: in vivo, Japanese people with type 2 diabetes mellitus; details: insulin glargine 5 U single s.c. dose; at 2 hours post-dose
Description: This was a phase I, single‐centre, randomized, open‐label, placebo‐controlled, four‐sequence, four‐period, four‐treatment crossover, single‐dose study.
Inclusion and exclusion criteria are provided in Appendix S1. […] There was a washout period of 7 to 14 days between dose administrations.
The secondary endpoints are described in Appendix S1.
The PD analyses were performed using the evaluable PD population. PPG–AUC0–2h was analysed using a linear mixed‐effects model with treatment group, sequence and treatment period as fixed effects, patient‐within‐sequence as a random effect, and baseline value as a covariate. The least squares (LS) mean differences were calculated between iGlarLixi groups and placebo, between the two iGlarLixi groups, and between iGlarLixi 5 U/5 μg and insulin glargine. The corresponding 95% confidence intervals and P values were calculated within the linear mixed‐effect model framework. P values < 0.05 were taken to indicate statistical significance. No adjustment for multiplicity was performed. […]
Secondary endpoints for PD included maximum postprandial plasma glucose (PPG) (PPG-Cmax), time of PPG-Cmax (PPG-tmax) and PPG-AUC0-5. In addition, serum insulin, serum C-peptide, and plasma glucagon concentrations were analyzed as secondary endpoints, and appropriate PD parameters such as AUCs were evaluated as applicable. […]

[2] = Safety: adverse events and hypoglycaemia; format: in vivo, Japanese people with type 2 diabetes mellitus; details: n=20
Description: Patient safety was monitored from adverse events (AEs) spontaneously reported by a patient or noted by an investigator, including hypoglycemic events. All AEs, regardless of seriousness or relationship to the study drug, were recorded in each patient’s records from the time the informed consent form was signed. Treatment emergent AEs (TEAEs) were defined as AEs that occurred or worsened or became serious during the treatment phase.
Evaluation of safety was based on the review of individual values and descriptive statistics. All safety analyses were performed in the safety population. Individual values were flagged for potentially clinically significant abnormalities (PCSAs) if appropriate.

insulin glargine
time of peak of mean plasma glucose concentration after breakfast start [1]: approximately 1 hour
Patients with any TEAE ([2]; insulin glargine 5U single s.c. dose, up to 24 hours after injection): 0 n
Patients with any TEAE leading to permanent treatment discontinuation ([2]; insulin glargine 5U): 0 n
Patients with any severe TEAE ([2]; insulin glargine 5U): 0 n
Patients with any treatment emergent SAE ([2]; insulin glargine 5U): 0 n
